Measurements from patent US9371374.

B1: HCV 208B-178 (antibody, V domains shown)
VH: DVKLVESGGGLVKLGGSLKLSCAASGFTFSSYYMSWVRQTPEKRLELVAAINSNGGSTYYPDTVKGRFTISRDNAKNTLYLQMSSLKSEDTALYYCARHGGLGRRDWYFDVWGAGTTVTVSS
VL: DIVLTQSPASLAVSLGQRATISCRASESVDNYGISFMHWYQQKPGQPPKLLIYRASNLESGIPARFSGSGSRTDFTLTINPVETDDVATYYCQQSNKDPFTFGSGAKLEIKR
B2: HCV 208B-408 (antibody, V domains shown)
VH: EVKLVESGGGLVQPGGSLRLSCASSGFTFTDYYMSWVRQPPGKALEWLGFIRNKAYGYTTEFSASVNGRFTISRDDSQSVPYLQMNTLRAEDSATYYCARVLYYDYGGFAYWGQGTLVTVST
VL: DIQMTQSPASLSASVGETVTITCRASGNIHTYLAWYQQKQGKSPQLLVYNANTLADGVPSRFSGSGSGTQFSLKINSLQPDDFGSYYCQHFWSAPWTFGGGTQLEIKR
B3: HCV 208A-638 (antibody, V domains shown)
VH: QGQLQQPGAEFVKPGASLKLSCRASGYTFTSYWIHWVKQRPGQGLEWIGEVDPSDSYINQNEKFRGKATLTVDKSSSTAYMQLGSLTSEDSAVYYCARHYYGVLDSWGQGTALTVSS
VL: QIVLTQSPTIMSASLGERVTMTCTASSSVSSSYLHWFQQKPGSSPKLWIYSTSNLASGVPPRFSGSGSGTSYSLSISSVEAEDVATYYCLQFHRSPWTFGGGAKLEIKR
B4: HCV 208A-741 (antibody, V domains shown)
VH: QLQQSGPVLVKPGASVMISCKTSGYTFTENAMHWVKQSHGKSLEWIGGVNPNNGDTIFNQKFKGKATLTVDKSSSTAFMELRSLTSEESTVYYCVRRELDFFDYWGQGTSVTVSS
VL: DIVLTQSPASLAVSLGQRTTISCGASQSVSTSRFSYMHWYQQKPGQPPKLLIKYASNLESGVPARFSGSGSGTDFTLNIHPVAEEDTAAYYCQHSWEFPFTFGSGTKLEIKR
B5: HCV 208B-251 (antibody, V domains shown)
VH: QLQQSGPVLVKPGASVKISCKTSGYTFTENAMHWVKQSHGKSLEWIGGVNPNNGDTIYNQKFKGKATLTVDKSSSTAFMELRSLTSEESPVYFCVRRELDFFDYWGQGTSVTVSS
VL: DIVLTQSPASLAVSLGKKATISCRASQSVSTSRYSYMHWYQQKPGHPPKLLIKYASNLESGVPARFSGSGSGTDFTLNIHPVAEEDTAAYYCQHSWEFPFTFGSGTKLEIKR
B6: HCV 208A-830 (antibody, V domains shown)
VH: EVRLQQPGPEVEKPGASVKISCKTSGYTFTEYAIHWVKQSHGESLEWIGGINPSNGDPIYNQIFKDKATLTVDRSSNTAYMGLRSLTVGDSGVYFCVRRQLDYFDFWGQGASLTVSS
VL: DIVLTQSPASLAVSLGQRATISCRSSQSVSTSRYSYLHWYQQKPGQPPKLLIKYASNLESGVPARFSGSGSGTDFTLNIHPVGEEDPATYYCQHSWEFPFTFGSGTKLEIKR
B7: HCV 208B-1096 (antibody, V domains shown)
VH: QVQLQQSGAGLAKPGASVKMSCKASGYTFTANKMHWAKQRPGQGLEWIGYIDPSSGYTEYNHKIQYKATLTADTSSSTAYMQLSTLTFEDSAVYYCTNFAYWGQGTLVTVSA
VL: DIVMTQTPLTLSVTIGQPASISCKSSQSLLFTNGKTYLNWFLQRPGQSPKRLIYLLSKLDSGVPDRFSGSGSGTDFTLKISRVEAEDLGVYYCLQSTYFPLTFGAGTKLELKR
B8: HCV 208B-395 (antibody, V domains shown)
VH: QVQLQQSGAGLAKPGASVKMSCKASGYTFTANKMHWTKQRPGQGLEWIGYIDPSSGYTQYNHKIQDKATLTADTSSSTAYMQLSSLTFEDSAVYYCTNFAYWGQGTLVTVSA
VL: DIVLTQSPATLSVTPGDRVSLSCRASQRIYNYLHWYQQKSHESPRLLIKYASQSISGIPSRFSGSGSGTDFILTINSVETEDFGMYFCQQSNSWPLTFGAGTKLELRR
B9: HCV 208B-189 (antibody, V domains shown)
VH: QVHLQQSGAELAKPGASVQMSCKASGYTFTANKMHWARQRPRQGLEWIGYIDPASGYTEYNQKIKDRATLTADKSSSTAYMQLSSLTSEDSAVYYCTNFAYWGQGTLVTVST
VL: not shown
B10: HCV 208B-1024 (antibody, V domains shown)
VH: EVQLVESGGDLVKPGGSLKLSCAASGFTFSNYGMSWVRQTPDKRLEWVATISSGGSYSYYPDSVKGRFTISRDNAKNILYLQMSSLKSEDTAMYYCASLYYGYGDYWGQGTAFTVSS
VL: DVLMTQTPLSLPVSLGDQASISCRSSQSIVHSNGNTYLEWYLQKLGQSPKLLIYRVSNRFSGVPDRFSGSGSGTDFTLKISRVEAEDLGVYYCFQGSHVPWTFGGGTKLEIKR
B11: HCV 208B-281 (antibody, V domains shown)
VH: QGQLQQSGAELVKPGASVKLSCKTSGFTFSSSYISWLKQRPGQSLEWIAWIYAGTGGTNYNQKFTDKAQLTVDTSSSTAYMQFSSLTTEDSAIYYCAISGTGFIYWGQGTLVTVSA
VL: DVLMTQTPLSLPVSLGDQASISCRSSQSLVHNNGNTYLEWFLQKPGQSPKLLIYKVSNRFSGVPDRFSGSGSGTDFTLKISRVEAEDLGVYYCFQGSHVPFTFGSGTKLEIKR
B12: HCV 208B-327 (antibody, V domains shown)
VH: EVQLVESGGGLVKPGGSLKLSCAASGFTFSDSYMYWVRQTPDQRLEWVATISDGGSYTFYPDSVKGRFTISRDNAQNNLYLQMSSLKSEDTAMYYCASPHAGYFGWFAYWGRGTLVTVSA
VL: DIVMTQAAFSNPVTPGTSVSISCRSSKSLLHSNGITYLYWYLQKPGQSPQLLIYQMSKIASGVPDRFRSSGSGTDFTLRISRVEAADVGVYYCAQNLELPWTFGGGTKLEIKR
B13: HCV 208B-1094 (antibody, V domains shown)
VH: EVQLQQSGPELVKPGASVKISCKTSGYTFTEYAMHWMKQSHGKSLEWIGGINPTNGDTIYNQRFKDKAKLTVDRSSSTAYMELRSLTSDDSALFYCARRELDYFASWGQGTTLTVSS
VL: DIVLTQSPASLIVSLGQTATISCRASQSLSTSRFSYVHWIQQKPGQPPKLLIKYASNLESGVPVRFSGSGSGTDFTLNIHPVEEEDTATYFCQHSWEFPFTFGSGTKLKIKR
B14: HCV 208A-877 (antibody, V domains shown)
VH: QLQQSGPELVKPGASVKISCKTSGYTFTENAMHWVKQSRGKSLEWIGGVNPNNGDTVYTQKFKGKATLTVAKSSSTAYMELRTMTCEESTVYYCASREPDFFDYWGQGSSVTVSS
VL: QIVLTQSPAIMSVSPGEKVSMTCSASSSVTYMHWYQQKSGTSPKRWIYDTSELASGVPARFSGSGSGTTYSLTISSMEAEDAATYYCQQWSNKPLTFGAGTKLELKR

Columns and labels:
Assay in all cases: EIA, captured mAb
[1] = molecular target: biotinylated HCV core peptide 134-154 (Peptide 1) (HCV-1)
[2] = molecular target: biotinylated HCV core peptide 141-161 (Peptide 2) (HCV-1)
[3] = molecular target: biotinylated HCV core peptide 151-171 (Peptide 3) (HCV-1)

Binder | Reactivity (OD492) [1] [OD] | Reactivity (OD492) [2] [OD] | Reactivity (OD492) [3] [OD]
B1 | 0.1 | 0.07 | 1.69
B2 | 0.81 | 0.2 | 0.16
B3 | 0.07 | 2.96 | 0.09
B4 | 1.2 | 3.37 | 0.06
B5 | 0.11 | 2.35 | 0.41
B6 | 0.07 | 2.88 | 0.08
B7 | 0.34 | 0.13 | 3.56
B8 | 0.54 | 0.13 | 3.69
B9 | 0.55 | 0.15 | 3.95
B10 | 0.08 | 0.75 | 0.15
B11 | 1.48 | 0.16 | 0.12
B12 | 0.07 | 0.05 | 0.49
B13 | 0.12 | 3.28 | 0.13
B14 | 0.06 | 1.21 | 0.05
